Consider three molecules from patent US20030113787A1 (Takeda / Millennium, published 2003).

For experiment [1], the target named is T1, Bcl-10-CARD/AD (mouse, UniProt Q04207 364-549; O95999 1-104).
T1 sequence (looked up): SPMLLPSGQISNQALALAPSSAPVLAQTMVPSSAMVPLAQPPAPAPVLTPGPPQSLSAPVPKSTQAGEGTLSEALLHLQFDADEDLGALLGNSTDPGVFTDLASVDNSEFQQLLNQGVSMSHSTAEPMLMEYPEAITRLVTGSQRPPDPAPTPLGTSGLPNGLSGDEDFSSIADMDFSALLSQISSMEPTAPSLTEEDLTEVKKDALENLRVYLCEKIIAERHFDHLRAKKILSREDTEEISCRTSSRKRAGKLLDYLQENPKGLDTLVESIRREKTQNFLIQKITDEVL
The experiment is described as follows: cell-based or functional assay.

Experiment [2] has as its target T2, Myc-CARD-11/CC (human, UniProt Q9BXL7 129-449).
T2 construct: NOT the whole entry: only the coiled-coil region stood in the assay
T2 sequence: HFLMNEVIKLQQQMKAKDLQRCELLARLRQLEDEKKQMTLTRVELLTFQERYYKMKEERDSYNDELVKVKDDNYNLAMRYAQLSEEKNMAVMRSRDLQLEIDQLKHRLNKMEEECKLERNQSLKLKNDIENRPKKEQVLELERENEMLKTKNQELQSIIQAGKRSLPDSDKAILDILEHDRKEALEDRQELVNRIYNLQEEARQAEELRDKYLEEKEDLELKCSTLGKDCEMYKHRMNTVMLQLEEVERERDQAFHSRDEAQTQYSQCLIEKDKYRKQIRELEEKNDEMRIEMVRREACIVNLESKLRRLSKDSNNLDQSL
The experiment is described as follows: co-localization by immunofluorescence in co-transfected cells.

Experiment [3] concerns the target T3, Myc-tagged CARD-11 (full-length) (human, UniProt Q9BXL7 8-1154).
T3 construct: Used in the co-localization and Bcl-10 phosphorylation experiments; also called full-length CARD-11
T3 sequence: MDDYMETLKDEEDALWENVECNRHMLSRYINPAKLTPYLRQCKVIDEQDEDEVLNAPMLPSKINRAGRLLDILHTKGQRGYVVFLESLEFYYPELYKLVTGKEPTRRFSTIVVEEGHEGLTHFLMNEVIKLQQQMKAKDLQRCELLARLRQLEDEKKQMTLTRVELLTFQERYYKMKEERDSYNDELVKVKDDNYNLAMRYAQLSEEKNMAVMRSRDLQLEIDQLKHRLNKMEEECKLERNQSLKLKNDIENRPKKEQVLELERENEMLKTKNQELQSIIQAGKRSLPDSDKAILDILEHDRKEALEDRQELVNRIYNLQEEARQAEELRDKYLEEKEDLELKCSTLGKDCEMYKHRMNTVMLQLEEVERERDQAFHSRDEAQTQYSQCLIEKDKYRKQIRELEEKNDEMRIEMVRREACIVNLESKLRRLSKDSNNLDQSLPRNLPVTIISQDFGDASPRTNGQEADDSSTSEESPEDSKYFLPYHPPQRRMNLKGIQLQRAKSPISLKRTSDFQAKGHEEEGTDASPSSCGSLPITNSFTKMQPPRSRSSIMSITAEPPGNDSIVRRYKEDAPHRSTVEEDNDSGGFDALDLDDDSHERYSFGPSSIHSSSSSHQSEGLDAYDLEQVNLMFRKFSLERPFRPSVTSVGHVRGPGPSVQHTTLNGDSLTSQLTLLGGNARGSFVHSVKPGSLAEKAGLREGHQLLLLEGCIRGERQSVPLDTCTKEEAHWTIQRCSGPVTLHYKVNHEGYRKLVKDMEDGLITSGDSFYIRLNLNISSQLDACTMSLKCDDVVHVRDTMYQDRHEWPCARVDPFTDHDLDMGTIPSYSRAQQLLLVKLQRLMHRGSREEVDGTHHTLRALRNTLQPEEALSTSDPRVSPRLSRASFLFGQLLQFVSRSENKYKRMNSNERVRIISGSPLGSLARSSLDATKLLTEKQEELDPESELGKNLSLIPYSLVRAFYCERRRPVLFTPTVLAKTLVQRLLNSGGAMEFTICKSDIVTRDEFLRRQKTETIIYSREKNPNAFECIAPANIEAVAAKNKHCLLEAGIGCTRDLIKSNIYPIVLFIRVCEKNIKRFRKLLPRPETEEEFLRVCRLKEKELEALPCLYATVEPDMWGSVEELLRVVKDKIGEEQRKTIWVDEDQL
Described as above.

Experiment [4] addresses T4, CARD-11/DCARD (human, UniProt Q9BXL7 134-1154).
T4 construct: also called CARD-11 truncation mutant lacking the N-terminal CARD
T4 sequence: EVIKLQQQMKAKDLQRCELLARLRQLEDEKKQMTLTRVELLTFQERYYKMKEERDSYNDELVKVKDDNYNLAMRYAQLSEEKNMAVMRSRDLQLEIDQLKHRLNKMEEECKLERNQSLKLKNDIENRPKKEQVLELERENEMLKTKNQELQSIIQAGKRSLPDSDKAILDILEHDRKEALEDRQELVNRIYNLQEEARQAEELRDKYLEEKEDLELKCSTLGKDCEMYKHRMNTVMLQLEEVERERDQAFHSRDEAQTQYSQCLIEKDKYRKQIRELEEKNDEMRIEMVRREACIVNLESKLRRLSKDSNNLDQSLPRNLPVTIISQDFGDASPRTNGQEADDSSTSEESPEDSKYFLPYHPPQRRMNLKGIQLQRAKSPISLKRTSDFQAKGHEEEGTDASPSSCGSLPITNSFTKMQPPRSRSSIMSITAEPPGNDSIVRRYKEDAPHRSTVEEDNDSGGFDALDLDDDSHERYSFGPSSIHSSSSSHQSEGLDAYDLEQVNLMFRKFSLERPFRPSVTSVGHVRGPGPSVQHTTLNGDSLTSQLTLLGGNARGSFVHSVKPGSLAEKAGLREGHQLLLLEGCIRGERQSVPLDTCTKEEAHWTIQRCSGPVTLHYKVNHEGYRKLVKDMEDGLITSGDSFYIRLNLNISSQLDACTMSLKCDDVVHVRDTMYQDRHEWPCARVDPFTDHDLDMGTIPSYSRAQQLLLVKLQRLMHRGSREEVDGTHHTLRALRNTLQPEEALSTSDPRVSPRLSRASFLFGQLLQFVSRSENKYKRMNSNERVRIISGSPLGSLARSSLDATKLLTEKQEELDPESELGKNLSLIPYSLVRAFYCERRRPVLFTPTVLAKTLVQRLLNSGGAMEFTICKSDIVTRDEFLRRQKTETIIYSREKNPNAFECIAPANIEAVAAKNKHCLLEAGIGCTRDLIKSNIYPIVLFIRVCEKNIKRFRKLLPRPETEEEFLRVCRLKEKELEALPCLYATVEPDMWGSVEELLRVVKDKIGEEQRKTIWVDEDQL
The experiment is described as above.

Experiment [5] concerns the target T5, Myc-tagged CARD-9 (human, UniProt Q9H257 1-536).
T5 construct: Expressed in 293T or Rat-1 cells; Species not restated; also called pCI-Card-9-myc
T5 sequence: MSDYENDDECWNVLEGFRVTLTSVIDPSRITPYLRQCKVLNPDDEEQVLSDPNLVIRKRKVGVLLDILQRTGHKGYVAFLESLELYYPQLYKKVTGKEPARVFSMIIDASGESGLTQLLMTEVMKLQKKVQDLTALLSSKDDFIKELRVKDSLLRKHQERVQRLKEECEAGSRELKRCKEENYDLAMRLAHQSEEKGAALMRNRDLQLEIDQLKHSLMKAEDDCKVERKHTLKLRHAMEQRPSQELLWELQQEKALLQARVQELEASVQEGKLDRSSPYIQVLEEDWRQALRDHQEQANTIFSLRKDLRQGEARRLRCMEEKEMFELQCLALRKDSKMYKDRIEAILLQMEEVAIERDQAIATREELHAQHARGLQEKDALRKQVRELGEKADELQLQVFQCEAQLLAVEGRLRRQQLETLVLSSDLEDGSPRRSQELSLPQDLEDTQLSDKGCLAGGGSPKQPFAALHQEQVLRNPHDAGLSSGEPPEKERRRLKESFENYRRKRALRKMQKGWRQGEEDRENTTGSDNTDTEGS
Nature of the experiment: co-localization by immunofluorescence in co-transfected Rat-1 cells. From the text:
To determine the cellular localization of CARD-9, and to confirm that CARD-9 associated intracellularly with Bcl-10 when the two proteins were co-expressed, Rat-1 cells were transfected with a Myc-tagged vector encoding full-length CARD-9, and with an HA-tagged vector encoding full-length Bcl-10. The expressed proteins were detected using a mixture of a monoclonal anti-Myc antibody and a polyclonal rabbit anti-HA antibody. Briefly, Rat-1 cells were transfected in glass chamber slides (BioCoat, Becton-Dickinson Labware) with pCI-Bcl-10-HA or pCI-Card-9-myc, alone or together, using FuGENE-6 (Roche Molecular Biochemicals) for 20 hours. Cells were fixed in 4% paraformaldehyde, permeabilized and blocked in buffer containing 0.4% Trition X-100, and sequentially incubated with primary and secondary antibodies. Antibodies were rabbit anti-HA polyclonal Y-11 (Santa Cruz Biotechnology), mouse anti-myc monoclonal 9E10 (Oncogene Research Products), Alexa-488 Goat anti-mouse IgG (Molecular Probes) and Texas-Red Goat anti-rabbit IgG (Jackson Immunoresearch Laboratories). No cross-reactivity was observed between any of the antibodies. Nuclei were stained with Hoechst 33258. […]

The target of experiment [6] is T2, Myc-CARD-11/CC. Nature of the experiment: co-immunoprecipitation from transfected 293T cells (anti-Flag IP, anti-Myc blot). Here is the method:
The interaction between CARD-11 and Bcl-10 was next examined in cells by overexpressing CARD-11 is cells and performing co-immunoprecipitation assays. These assays were performed as follows. Plasmids expressing CARD-11 with C-terminal Myc epitopes were constructed using pCMV-Tag 5A (Stratagene Corp., La Jolla, Calif.). Constructs encoding epitope-tagged Bcl-10 were described previously (Srinivasula et al., […] J. Biol. Chem. 274:17946). 293T cells transfected with the plasmids were lysed in 50 mM Tris, pH 8.0, 120 mM NaCl, 1 mM EDTA, 0.5% Nonidet P-40 buffer and incubated with anti-Flag-M2 monoclonal antibody (Sigma Co.). The immune complexes were precipitated with protein G-Sepharose (Amersham Pharmacia Bio), washed extensively, and then subjected to SDS-polyacrylamide gel electrophoresis and immunoblotted with polyclonal anti-Myc antibodies (Santa Cruz Biotechnology, Inc.).

B1: CARD10-CARD/BD (other, yeast)
chain: MKLLSSIEQACDICRLKKLKCSKEKPKCAKCLKNNWECRYSPKTKRSPLTRAHLTEVESRLERLEQLFLLIFPREDLDMILKMDSLQDIKALLTGLFVQDNVNKDAVTDRLASVETDMPLTLRQHRISATSSSEESSNKGQRQLTVSMPGRAEAGEAEEEAGAGSGSEAEEDALWERIEGVRHRLARALNPAKLTPYLRQCRVIDEQDEEEVLSTYRFPCRVNRTGRLMDILRCRGKRGYEAFLEALEFYYPEHFTLLTGQEPAQRCSMILDEEGPEGLTQFLMT
On to B1, for which the “relative luciferase activity (mammalian two-hybrid reporter)” value in experiment [1] was determined as 340 fold.

B2: HA-tagged Bcl-10 (other, UniProt O95999 1-233, looked up, not shown: small tags and cut ends)
chain: MEPTAPSLTEEDLTEVKKDALENLRVYLCEKIIAERHFDHLRAKKILSREDTEEISCRTSSRKRAGKLLDYLQENPKGLDTLVESIRREKTQNFLIQKITDEVLKLRNIKLEHLKGLKCSSCEPFPDGATNNLSRSNSDESNFSEKLRASTVMYHPEGESSTTPFFSTNSSLNLPVLEVGRTENTIFSSTTLPRPGDPGAPPLPPDLQLEEEGTCANSSEMFLPLRSRTVSRQ
notes: Expressed in Rat-1 or other transfected cells; also called pCI-Bcl-10-HA; HA-Bcl-10
Take B2: the binding result in experiment [2] is given as “no binding”; in experiment [3] it was “binds”; in experiment [4], “no binding”; in experiment [5], “binds”.

B3: Flag-tagged Bcl-10 (other, UniProt O95999 1-233, looked up, not shown: small tags and cut ends)
chain: B2 chain
notes: Expressed in 293T cells; also called Flag-Bcl-10
Take B3: the binding result in experiment [6] is listed as “no binding”.
